Results on 5 molecules are retold here after patent US20170008943A1 (Novo Nordisk, published 2017).

The target in assay [1] is T1, human glucagon receptor (human, UniProt P47871 26-477). Briefly: cell-based or functional assay.
Assay [2] concerns the target T1, human glucagon receptor. Briefly: displacement of 125I-glucagon from BHK membranes with human glucagon receptor (SPA), Assay (II)(b).

*1 amine or outer side, *2 acyl side, *3 side chain or, on linkers, in order; H or OH if unused. Side-chain parts run from the residue outwards. [ ]: non-standard residue; d: D form. The star is where a group is joined. γGlu = O=C(O)[C@H](CCC(=O)[*:2])N[*:1]; Desaminohistidyl = O=C(CCc1c[nH]cn1)*

T1 sequence (P47871 26-477): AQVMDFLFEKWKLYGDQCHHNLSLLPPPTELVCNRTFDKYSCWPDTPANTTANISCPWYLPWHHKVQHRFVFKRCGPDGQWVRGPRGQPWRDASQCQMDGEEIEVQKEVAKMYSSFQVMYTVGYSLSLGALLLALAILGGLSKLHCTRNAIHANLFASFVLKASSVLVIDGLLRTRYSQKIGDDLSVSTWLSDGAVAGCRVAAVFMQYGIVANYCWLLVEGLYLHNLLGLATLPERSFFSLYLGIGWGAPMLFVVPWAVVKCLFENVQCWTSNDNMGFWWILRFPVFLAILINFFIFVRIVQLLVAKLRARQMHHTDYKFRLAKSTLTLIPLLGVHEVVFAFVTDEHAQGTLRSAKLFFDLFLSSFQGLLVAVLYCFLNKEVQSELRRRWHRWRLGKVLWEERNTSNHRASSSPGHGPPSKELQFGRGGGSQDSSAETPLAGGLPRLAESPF

B1: N^ε24-[2-[[(4S)-4-[[(4S)-4-[[(4S)-4-[[(4S)-4-acetamido-4-carboxybutanoyl]amino]-4-carboxybutanoyl]amino]-4-carboxybutanoyl]amino]-4-carboxybutanoyl]amino]acetyl … (peptide)
peptide: [Desaminohistidyl]SHGTFTSDYSKYLESRRAQEFVK([Gly-γGlu-γGlu-γGlu-γGlu-Ac])WLLST-OH
SMILES: CC(=O)N[C@@H](CCC(=O)N[C@@H](CCC(=O)N[C@@H](CCC(=O)N[C@@H](CCC(=O)NCC(=O)NCCCC[C@H](NC(=O)[C@@H](NC(=O)[C@H](Cc1ccccc1)NC(=O)[C@H](CCC(=O)O)NC(=O)[C@H](CCC(N)=O)NC(=O)[C@H](C)NC(=O)[C@H](CCCNC(=N)N)NC(=O)[C@H](CCCNC(=N)N)NC(=O)[C@H](CO)NC(=O)[C@H](CCC(=O)O)NC(=O)[C@H](CC(C)C)NC(=O)[C@H](Cc1ccc(O)cc1)NC(=O)[C@H](CCCCN)NC(=O)[C@H](CO)NC(=O)[C@H](Cc1ccc(O)cc1)NC(=O)[C@H](CC(=O)O)NC(=O)[C@H](CO)NC(=O)[C@@H](NC(=O)[C@H](Cc1ccccc1)NC(=O)[C@@H](NC(=O)CNC(=O)[C@H](Cc1c[nH]cn1)NC(=O)[C@H](CO)NC(=O)CCc1c[nH]cn1)[C@@H](C)O)[C@@H](C)O)C(C)C)C(=O)N[C@@H](Cc1c[nH]c2ccccc12)C(=O)N[C@@H](CC(C)C)C(=O)N[C@@H](CC(C)C)C(=O)N[C@@H](CO)C(=O)N[C@H](C(=O)O)[C@@H](C)O)C(=O)O)C(=O)O)C(=O)O)C(=O)O
notes: Imp written X under substitutions
In the case of B1, in the assay with human glucagon receptor [1], the “EC50 hGlucagonR (pM), CRE luciferase reporter in BHK cells” value (shortened to “EC50 hGlucagonR (pM)”) came to 9.9 pM. Besides, the concentration for half-maximal inhibition (IC50) with human glucagon receptor [2] was 2.5 nM.

B2: N^α([Imp1, His3, Glu15, Glu21, Leu27, … (peptide)
peptide: [Desaminohistidyl]SHGTFTSDYSKYLESRRAQEFVQWLLSTK([γGlu-γGlu-γGlu-γGlu-Ac])-OH
SMILES: CC(=O)N[C@@H](CCC(=O)N[C@@H](CCC(=O)N[C@@H](CCC(=O)N[C@@H](CCC(=O)NCCCC[C@H](NC(=O)[C@@H](NC(=O)[C@H](CO)NC(=O)[C@H](CC(C)C)NC(=O)[C@H](CC(C)C)NC(=O)[C@H](Cc1c[nH]c2ccccc12)NC(=O)[C@H](CCC(N)=O)NC(=O)[C@@H](NC(=O)[C@H](Cc1ccccc1)NC(=O)[C@H](CCC(=O)O)NC(=O)[C@H](CCC(N)=O)NC(=O)[C@H](C)NC(=O)[C@H](CCCNC(=N)N)NC(=O)[C@H](CCCNC(=N)N)NC(=O)[C@H](CO)NC(=O)[C@H](CCC(=O)O)NC(=O)[C@H](CC(C)C)NC(=O)[C@H](Cc1ccc(O)cc1)NC(=O)[C@H](CCCCN)NC(=O)[C@H](CO)NC(=O)[C@H](Cc1ccc(O)cc1)NC(=O)[C@H](CC(=O)O)NC(=O)[C@H](CO)NC(=O)[C@@H](NC(=O)[C@H](Cc1ccccc1)NC(=O)[C@@H](NC(=O)CNC(=O)[C@H](Cc1c[nH]cn1)NC(=O)[C@H](CO)NC(=O)CCc1c[nH]cn1)[C@@H](C)O)[C@@H](C)O)C(C)C)[C@@H](C)O)C(=O)O)C(=O)O)C(=O)O)C(=O)O)C(=O)O
notes: as for B1
For B2, in the assay with human glucagon receptor [1], the “EC50 hGlucagonR (pM)” value amounted to 4 pM. This molecule came in with an IC50 with human glucagon receptor [2] of 2 nM.

B3: N^ε28-[(4S)-4-[[(4S)-4-[[(4S)-4-[[(4S)-4-acetamido-4-carboxybutanoyl]amino]-4-carboxybutanoyl]amino]-4-carboxybutanoyl]amino]-4-carboxybutanoyl]-[Imp1, His3, … (peptide)
peptide: [Desaminohistidyl]SHGTFTSDYSKYLESRRAQEFVQWLLK([γGlu-γGlu-γGlu-γGlu-Ac])T-OH
SMILES: CC(=O)N[C@@H](CCC(=O)N[C@@H](CCC(=O)N[C@@H](CCC(=O)N[C@@H](CCC(=O)NCCCC[C@H](NC(=O)[C@H](CC(C)C)NC(=O)[C@H](CC(C)C)NC(=O)[C@H](Cc1c[nH]c2ccccc12)NC(=O)[C@H](CCC(N)=O)NC(=O)[C@@H](NC(=O)[C@H](Cc1ccccc1)NC(=O)[C@H](CCC(=O)O)NC(=O)[C@H](CCC(N)=O)NC(=O)[C@H](C)NC(=O)[C@H](CCCNC(=N)N)NC(=O)[C@H](CCCNC(=N)N)NC(=O)[C@H](CO)NC(=O)[C@H](CCC(=O)O)NC(=O)[C@H](CC(C)C)NC(=O)[C@H](Cc1ccc(O)cc1)NC(=O)[C@H](CCCCN)NC(=O)[C@H](CO)NC(=O)[C@H](Cc1ccc(O)cc1)NC(=O)[C@H](CC(=O)O)NC(=O)[C@H](CO)NC(=O)[C@@H](NC(=O)[C@H](Cc1ccccc1)NC(=O)[C@@H](NC(=O)CNC(=O)[C@H](Cc1c[nH]cn1)NC(=O)[C@H](CO)NC(=O)CCc1c[nH]cn1)[C@@H](C)O)[C@@H](C)O)C(C)C)C(=O)N[C@H](C(=O)O)[C@@H](C)O)C(=O)O)C(=O)O)C(=O)O)C(=O)O
notes: as for B1
Consider B3, for which, in the assay with human glucagon receptor [1], the “EC50 hGlucagonR (pM)” value worked out at 6 pM. Also, the IC50 with human glucagon receptor [2] is 2.6 nM.

B4: N^ε29-[(4S)-4-[[(4S)-4-[[(4S)-4-[[(4S)-4-acetamido-4-carboxybutanoyl]amino]-4-carboxybutanoyl]amino]-4-carboxybutanoyl]amino]-4-carboxybutanoyl]-[Imp1, His3, … (peptide)
peptide: [Desaminohistidyl]SHGTFTSDYSKYLESRRAQEFVQWLLSK([γGlu-γGlu-γGlu-γGlu-Ac])-OH
SMILES: CC(=O)N[C@@H](CCC(=O)N[C@@H](CCC(=O)N[C@@H](CCC(=O)N[C@@H](CCC(=O)NCCCC[C@H](NC(=O)[C@H](CO)NC(=O)[C@H](CC(C)C)NC(=O)[C@H](CC(C)C)NC(=O)[C@H](Cc1c[nH]c2ccccc12)NC(=O)[C@H](CCC(N)=O)NC(=O)[C@@H](NC(=O)[C@H](Cc1ccccc1)NC(=O)[C@H](CCC(=O)O)NC(=O)[C@H](CCC(N)=O)NC(=O)[C@H](C)NC(=O)[C@H](CCCNC(=N)N)NC(=O)[C@H](CCCNC(=N)N)NC(=O)[C@H](CO)NC(=O)[C@H](CCC(=O)O)NC(=O)[C@H](CC(C)C)NC(=O)[C@H](Cc1ccc(O)cc1)NC(=O)[C@H](CCCCN)NC(=O)[C@H](CO)NC(=O)[C@H](Cc1ccc(O)cc1)NC(=O)[C@H](CC(=O)O)NC(=O)[C@H](CO)NC(=O)[C@@H](NC(=O)[C@H](Cc1ccccc1)NC(=O)[C@@H](NC(=O)CNC(=O)[C@H](Cc1c[nH]cn1)NC(=O)[C@H](CO)NC(=O)CCc1c[nH]cn1)[C@@H](C)O)[C@@H](C)O)C(C)C)C(=O)O)C(=O)O)C(=O)O)C(=O)O)C(=O)O
notes: as for B1
As for B4, the “EC50 hGlucagonR (pM)” value with human glucagon receptor [1] was found to be 4 pM. Further, the IC50 with human glucagon receptor [2] came out at 5.1 nM.

B5: Nε^21-[(4S)-4-[[(4S)-4-[[(4S)-4-[[(4S)-4-acetamido-4-carboxybutanoyl]amino]-4-carboxybutanoyl]amino]-4-carboxybutanoyl]amino]-4-carboxybutanoyl]-[Imp1, His3, … (peptide)
peptide: [Desaminohistidyl]SHGTFTSDYSKYLESRRAQK([γGlu-γGlu-γGlu-γGlu-Ac])FVQWLLST-OH
SMILES: CC(=O)N[C@@H](CCC(=O)N[C@@H](CCC(=O)N[C@@H](CCC(=O)N[C@@H](CCC(=O)NCCCC[C@H](NC(=O)[C@H](CCC(N)=O)NC(=O)[C@H](C)NC(=O)[C@H](CCCNC(=N)N)NC(=O)[C@H](CCCNC(=N)N)NC(=O)[C@H](CO)NC(=O)[C@H](CCC(=O)O)NC(=O)[C@H](CC(C)C)NC(=O)[C@H](Cc1ccc(O)cc1)NC(=O)[C@H](CCCCN)NC(=O)[C@H](CO)NC(=O)[C@H](Cc1ccc(O)cc1)NC(=O)[C@H](CC(=O)O)NC(=O)[C@H](CO)NC(=O)[C@@H](NC(=O)[C@H](Cc1ccccc1)NC(=O)[C@@H](NC(=O)CNC(=O)[C@H](Cc1c[nH]cn1)NC(=O)[C@H](CO)NC(=O)CCc1c[nH]cn1)[C@@H](C)O)[C@@H](C)O)C(=O)N[C@@H](Cc1ccccc1)C(=O)N[C@H](C(=O)N[C@@H](CCC(N)=O)C(=O)N[C@@H](Cc1c[nH]c2ccccc12)C(=O)N[C@@H](CC(C)C)C(=O)N[C@@H](CC(C)C)C(=O)N[C@@H](CO)C(=O)N[C@H](C(=O)O)[C@@H](C)O)C(C)C)C(=O)O)C(=O)O)C(=O)O)C(=O)O
notes: as for B1
B5: in the assay with human glucagon receptor [1], the “EC50 hGlucagonR (pM)” value stood at 17 pM. The concentration for half-maximal inhibition (IC50) with human glucagon receptor [2] was 5.2 nM.
